Literature values as cited in publication PMC2723763.

Molecular target: ZPI (Homo sapiens) (UniProt Q9UK55)
UniProt Q9UK55, sequence (Q9UK55 22-444): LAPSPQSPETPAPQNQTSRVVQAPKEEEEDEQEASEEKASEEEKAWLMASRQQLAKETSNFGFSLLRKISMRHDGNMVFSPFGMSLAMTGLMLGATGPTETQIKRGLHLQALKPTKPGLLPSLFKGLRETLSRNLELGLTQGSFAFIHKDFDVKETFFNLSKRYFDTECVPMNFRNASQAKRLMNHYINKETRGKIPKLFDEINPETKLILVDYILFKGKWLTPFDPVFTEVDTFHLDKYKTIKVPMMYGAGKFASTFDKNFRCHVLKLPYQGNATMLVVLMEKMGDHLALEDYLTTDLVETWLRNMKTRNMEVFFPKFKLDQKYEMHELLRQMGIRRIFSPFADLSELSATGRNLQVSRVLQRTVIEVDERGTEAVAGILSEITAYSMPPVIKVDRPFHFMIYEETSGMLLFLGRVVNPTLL

For protein Z (from UniProt P22891), the Kd is given as 7 nM.
